In the supplement of paper PMC10567573:

B1: CPXM2 (parent)
chain: EILGCPLPDPNNYYHRRNEMTTTD

Variants of: B1
Assay: protein stability index of a GFP-peptide fusion (GPS, HEK-293T) (PSI 1-6); higher = more stable
Settings: c terminus: a fixed tail appended
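Also: lentivirally expressed fusions sorted by FACS into six bins by GFP to DsRed ratio, PSI derived from sequencing read proportions per bin multiplied by bin number.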

Protein stability index: each site, then its substitutions
P10: Y 2.91; S 3.42; L 2.8; H 3.66; R 3.49; E 4.08; C 3.26; W 2.72; F 3.18; G 3.95; K 3.41; V 3.46; N 3.37; M 3.44; T 3.6; I 3.09; A 3.45; Q 3.4; D 3.88
P8: W 2.62; A 2.9; N 3.31; M 2.47; K 3.58; F 2.61; Y 2.71; H 2.82; S 3.17; G 3.8; T 3.12; D 4.22; C 2.4; E 3.88; V 3.01; Q 3.56; L 2.66; R 3.56; I 3.14
G4: Y 3.13; T 3.49; W 2.77; S 3.57; V 3.41
Y13: E 4.29; G 4.08; I 3.92; N 3.89; L 3.58; K 4.14; A 4.21; H 4.18; D 4.43; M 4; F 3.35; C 3.77; P 4.12
D9: A 3.07; I 2.59; W 2.44; F 2.68; V 3.04; Y 2.75; K 2.85; T 3.25; R 3.34; P 3.26; N 3.18; G 3.03; Q 3.35; C 3.17; M 2.92; E 3.15; S 3.24; L 3.05; H 2.39
N12: R 3.35; H 3.36; K 2.77; D 4.07; A 3.67; W 2.79; I 3.05; M 3.41; P 3.45; C 3.44; Q 3.73; Y 3.35; V 3.17; G 2.85; L 3.42; F 2.5; E 3.85; T 3.17; S 3.09
L7: Q 3.68; E 4.08; F 3.38; Y 3.61; N 4.13; V 3.31; I 3.79; H 3.88; K 3.88; S 4.14; G 3.48; D 4.04; M 3.59; C 3.83; R 3.69; W 3.32
C5: Y 2.96; S 4.17; L 3.62; P 4.42; M 3.83; R 3.54; E 4.07; I 3.28; K 4.08; A 3.79; V 3.41; F 3.65; G 3.76; D 4.09; Q 3.85; T 3.8; N 3.61; H 3.91; W 2.72
P6: M 2.07; L 2.14; N 2.8; K 2.76; D 3.95; H 2.94; Y 2.44; Q 2.92; S 3.4; R 2.84; V 2.48; E 3.58; T 3.49; W 2.46; C 2.92; A 3.16; F 1.91; I 2.01; G 2.87
N11: H 3.19; Q 3.73; V 3.38; D 3.57; L 2.98; M 3.21; K 3.47; G 3.15; S 3.16; F 2.96; A 3.43; Y 3.13; W 2.29; T 3.48; E 4.07; I 2.48; P 3.84; R 3.04; C 2.72
